Measurements from the supplement of paper PMC5998384.

Key:
HeLa Kyoto [1] = test: thermal stability score vs G1/S (z-score of summed log2 fold changes over temperatures); higher = more thermally stable than in G1/S
HeLa Kyoto [2] = test: melting temperature (median over replicates), in situ; higher = more thermally stable
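For melting temperature (median over replicates), in situ in this document: HeLa Kyoto cells synchronized by double thymidine or nocodazole block, proteins quantified by TMT10plex mass spectrometry, three independent biological replicates.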
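For thermal stability score vs G1/S (z-score of summed log2 fold changes over temperatures) in this document: synchronized HeLa Kyoto cells, proteins quantified by TMT10plex mass spectrometry, three biological replicates, mitosis taken 0.5 h after nocodazole release, G1/S directly after double thymidine block.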

Chain of UBE2V1 (chain, as listed by the source): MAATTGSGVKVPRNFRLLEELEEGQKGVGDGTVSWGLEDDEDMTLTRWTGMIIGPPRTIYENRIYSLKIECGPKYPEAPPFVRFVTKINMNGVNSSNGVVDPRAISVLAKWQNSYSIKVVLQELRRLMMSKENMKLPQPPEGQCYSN

In the case of “MAVAAAAAAGPVFWRRLLGLLPGRPGLAALLGRLSDRLGRNRDRQRRRSPWLLLAPLLSPAVPQVTSPPCCLCPEGVHRFQWIRNLVPEFGVSSSHVRVLSSPAEFFELMKGQIRVAKRRVVMASLYLGTGPLEQELVDCLESTLEKSLQAKFPSNLKVSILLDFTRGSRGRKNSRTMLLPLLRRFPEQVRVSLFHTPHLRGLLRLLIPERFNETIGLQHIKVYLFDNSVILSGANLSDSYFTNRQDRYVFLQDCAEIADFFTELVDAVGDVSLQLQGDDTVQVVDGMVHPYKGDRAEYCKAANKRVMDVINSARTRQQMLHAQTFHSNSLLTQEDAAAAGDRRPAPDTWIYPLIQMKPFEIQIDEIVTETLLTEAERGAKVYLTTGYFNLTQAYMDLVLGTRAEYQILLASPEVNGFFGAKGVAGAIPAAYVHIERQFFSEVCSLGQQERVQLQEYWRRGWTFHAKGLWLYLAGSSLPCLTLIGSPNFGYRSVHRDLEAQIAIVTENQALQQQLHQEQEQLYLRSGVVSSATFEQPSRQVKLWVKMVTPLIKNFF [PGS1]”, the thermal stability score (HeLa Kyoto [1]; cell cycle stage: early G1 (4.5 h after nocodazole release)) is reported as 0.0742, the thermal stability score (HeLa Kyoto [1]; cell cycle stage: mitosis) is reported as -0.577 and the melting temperature (HeLa Kyoto [2]; cell cycle stage: G1/S) is reported as 53.2 °C. The melting temperature (HeLa Kyoto [2]; cell cycle stage: mitosis) was 53.2 °C.
“MQPPPPGPLGDCLRDWEDLQQDFQNIQETHRLYRLKLEELTKLQNNCTSSITRQKKRLQELALALKKCKPSLPAEAEGAAQELENQMKERQGLFFDMEAYLPKKNGLYLSLVLGNVNVTLLSKQAKFAYKDEYEKFKLYLTIILILISFTCRFLLNSRVTDAAFNFLLVWYYCTLTIRESILINNGSRIKGWWVFHHYVSTFLSGVMLTWPDGLMYQKFRNQFLSFSMYQSFVQFLQYYYQSGCLYRLRALGERHTMDLTVEGFQSWMWRGLTFLLPFLFFGHFWQLFNALTLFNLAQDPQCKEWQVLMCGFPFLLLFLGNFFTTLRVVHHKFHSQRHGSKKD [TMEM120A]” showed a melting temperature (HeLa Kyoto [2]; cell cycle stage: G1/S) of 54.2 °C and a melting temperature (HeLa Kyoto [2]; cell cycle stage: mitosis) of 53.4 °C.
“MQPPPPGPLGDCLRDWEDLQQDFQNIQETHRLYRLKLEELTKLQNNCTSSITRQKKRLQELALALKKCKPSLPAEAEGAAQELENQMKERQGLFFDMEAYLPKKNGLYLSLVLGNVNVTLLSKQAKFAYKDEYEKFKLYLTIILILISFTCRFLLNSRVTDAAFNFLLVWYYCTLTIRESILINNGSRIKGWWVFHHYVSTFLSGVMLTWPDGLMYQKFRNQFLSFSMYQSFVQFLQYYYQSGCLYRLRALGERHTMDLTVEGFQSWMWRGLTFLLPFLFFGHFWQLFNALTLFNLAQDPQCKEWQVLMCGFPFLLLFLGNFFTTLRVVHHKFHSQRHGSKKD [TMPIT]” was tested, and the melting temperature (HeLa Kyoto [2]; cell cycle stage: G1/S) was 54.2 °C and the melting temperature (HeLa Kyoto [2]; cell cycle stage: mitosis) was 53.4 °C.
In the case of “MRRAGLGEGVPPGNYGNYGYANSGYSACEEENERLTESLRSKVTAIKSLSIEIGHEVKTQNKLLAEMDSQFDSTTGFLGKTMGKLKILSRGSQTKLLCYMMLFSLFVFFIIYWIIKLR [BET1]”, the melting temperature (HeLa Kyoto [2]; cell cycle stage: G1/S) is reported as 54.7 °C and the melting temperature (HeLa Kyoto [2]; cell cycle stage: mitosis) is reported as 54.9 °C.
Work on “MSPLSAARAALRVYAVGAAVILAQLLRRCRGGFLEPVFPPRPDRVAIVTGGTDGIGYSTAKHLARLGMHVIIAGNNDSKAKQVVSKIKEETLNDKVEFLYCDLASMTSIRQFVQKFKMKKIPLHVLINNAGVMMVPQRKTRDGFEEHFGLNYLGHFLLTNLLLDTLKESGSPGHSARVVTVSSATHYVAELNMDDLQSSACYSPHAAYAQSKLALVLFTYHLQRLLAAEGSHVTANVVDPGVVNTDVYKHVFWATRLAKKLLGWLLFKTPDEGAWTSIYAAVTPELEGVGGHYLYNEKETKSLHVTYNQKLQQQLWSKSCEMTGVLDVTL [DHRSX]” yielded a melting temperature (HeLa Kyoto [2]; cell cycle stage: mitosis) of 52.9 °C.
For “MSRFFTTGSDSESESSLSGEELVTKPVGGNYGKQPLLLSEDEEDTKRVVRSAKDKRFEELTNLIRTIRNAMKIRDVTKCLEEFELLGKAYGKAKSIVDKEGVPRFYIRILADLEDYLNELWEDKEGKKKMNKNNAKALSTLRQKIRKYNRDFESHITSYKQNPEQSADEDAEKNEEDSEGSSDEDEDEDGVSAATFLKKKSEAPSGESRKFLKKMDDEDEDSEDSEDDEDWDTGSTSSDSDSEEEEGKQTALASRFLKKAPTTDEDKKAAEKKREDKAKKKHDRKSKRLDEEEEEDNEGGEWERVRGGVPLVKEKPKMFAKGTEITHAVVIKKLNEILQARGKKGTDRAAQIELLQLLVQIAAENNLGEGVIVKIKFNIIASLYDYNPNLATYMKPEMWGKCLDCINELMDILFANPNIFVGENILEESENLHNADQPLRVRGCILTLVERMDEEFTKIMQNTDPHSQEYVEHLKDEAQVCAIIERVQRYLEEKGTTEEVCRIYLLRILHTYYKFDYKAHQRQLTPPEGSSKSEQDQAENEGEDSAVLMERLCKYIYAKDRTDRIRTCAILCHIYHHALHSRWYQARDLMLMSHLQDNIQHADPPVQILYNRTMVQLGICAFRQGLTKDAHNALLDIQSSGRAKELLGQGLLLRSLQERNQEQEKVERRRQVPFHLHINLELLECVYLVSAMLLEIPYMAAHESDARRRMISKQFHHQLRVGERQPLLGPPESMREHVVAASKAMKMGDWKTCHSFIINEKMNGKVWDLFPEADKVRTMLVRKIQEESLRTYLFTYSSVYDSISMETLSDMFELDLPTVHSIISKMIINEELMASLDQPTQTVVMHRTEPTAQQNLALQLAEKLGSLVENNERVFDHKQGTYGGYFRDQKDGYRKNEGYMRRGGYRQQQSQTAY [EIF3CL]”, the melting temperature (HeLa Kyoto [2]; cell cycle stage: G1/S) was 49 °C and the melting temperature (HeLa Kyoto [2]; cell cycle stage: mitosis) was 48.9 °C.
In the case of “MSSKRTKTKTKKRPQRATSNVFAMFDQSQIQEFKEAFNMIDQNRDGFIDKEDLHDMLASLGKNPTDEYLDAMMNEAPGPINFTMFLTMFGEKLNGTDPEDVIRNAFACFDEEATGTIQEDYLRELLTTMGDRFTDEEVDELYREAPIDKKGNFNYIEFTRILKHGAKDKDD [MYL12A]”, the melting temperature (HeLa Kyoto [2]; cell cycle stage: G1/S) is reported as 54 °C and the melting temperature (HeLa Kyoto [2]; cell cycle stage: mitosis) is reported as 52.7 °C.
“MSTRKRRGGAINSRQAQKRTREATSTPEISLEAEPIELVETAGDEIVDLTCESLEPVVVDLTHNDSVVIVDERRRPRRNARRLPQDHADSCVVSSDDEELSRDRDVYVTTHTPRNARDEGATGLRPSGTVSCPICMDGYSEIVQNGRLIVSTECGHVFCSQCLRDSLKNANTCPTCRKKINHKRYHPIYI [RNF4]” showed a melting temperature (HeLa Kyoto [2]; cell cycle stage: G1/S) of 53.2 °C.
With “MTVKTEAAKGTLTYSRMRGMVAILIAFMKQRRMGLNDFIQKIANNSYACKHPEVQSILKISQPQEPELMNANPSPPPSPSQQINLGPSSNPHAKPSDFHFLKVIGKGSFGKVLLARHKAEEVFYAVKVLQKKAILKKKEEKHIMSERNVLLKNVKHPFLVGLHFSFQTADKLYFVLDYINGGELFYHLQRERCFLEPRARFYAAEIASALGYLHSLNIVYRDLKPENILLDSQGHIVLTDFGLCKENIEHNSTTSTFCGTPEYLAPEVLHKQPYDRTVDWWCLGAVLYEMLYGLPPFYSRNTAEMYDNILNKPLQLKPNITNSARHLLEGLLQKDRTKRLGAKDDFMEIKSHVFFSLINWDDLINKKITPPFNPNVSGPNDLRHFDPEFTEEPVPNSIGKSPDSVLVTASVKEAAEAFLGFSYAPPTDSFL [SGK1]” the melting temperature (HeLa Kyoto [2]; cell cycle stage: mitosis) was 48.3 °C.
Substance “MVGGGGVGGGLLENANPLIYQRSGERPVTAGEEDEQVPDSIDAREIFDLIRSINDPEHPLTLEELNVVEQVRVQVSDPESTVAVAFTPTIPHCSMATLIGLSIKVKLLRSLPQRFKMDVHITPGTHASEHAVNKQLADKERVAAALENTHLLEVVNQCLSARS [FAM96B]” has a melting temperature (HeLa Kyoto [2]; cell cycle stage: G1/S) of 50.3 °C and a melting temperature (HeLa Kyoto [2]; cell cycle stage: mitosis) of 52.7 °C.
Substance TPK1 has a melting temperature (HeLa Kyoto [2]; cell cycle stage: G1/S) of 56.3 °C and a melting temperature (HeLa Kyoto [2]; cell cycle stage: mitosis) of 55.6 °C.
UBE2V1 was tested, and the melting temperature (HeLa Kyoto [2]; cell cycle stage: G1/S) was 54.2 °C.
